Biological target: OX40-R65C (human OX40 with p.Arg65Cys), expressed ectopically on cells (human) (UniProt P43489)
Test: flow cytometry on cells

Sequence of UniProt P43489 (P43489 29-277 R65C): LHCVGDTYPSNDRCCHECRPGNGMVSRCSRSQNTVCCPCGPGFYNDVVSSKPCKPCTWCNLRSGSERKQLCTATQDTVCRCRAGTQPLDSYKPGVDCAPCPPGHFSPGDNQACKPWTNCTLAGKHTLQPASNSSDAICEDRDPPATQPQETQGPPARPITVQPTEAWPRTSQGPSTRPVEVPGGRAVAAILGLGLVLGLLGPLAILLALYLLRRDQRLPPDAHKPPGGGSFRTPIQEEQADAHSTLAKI

biotinylated recombinant soluble human OX40 ligand (OX40L) (from UniProt P23510 51-183)
fold decrease of OX40L binding against cells expressing OX40-WT: 16 fold

— paper PMC3754857
